# Columns and labels:
# [1] = system: human PBMCs (CD4 T, CD8 T, NK cells); experiment: Restoration of IFN-γ and IL-2 production of NECA-suppressed T cells and NK cells (intracellular cytokine staining); type: cell-based; conditions: anti-CD3/28 Dynabeads activated, 0.1 μM NECA; for restoring IFN-γ production in human CD4 T suppressed by NECA (FIG. 5A): compared with AB928, AZD4635 and CPI-444; for restoring IL-2 production in human CD4 T suppressed by NECA (FIG. 5B): compared with AZD4635 and CPI-444
# [2] = molecular target: T1, human A2aR on the cell surface of human PBMCs (Homo sapiens, UniProt P29274); experiment: Binding of anti-A2aR antibodies to human PBMC subsets (CD4 T, CD8 T, NK, NKT cells; FACS); conditions: for binding to human T cells (CD4, CD8), NK cells and NKT cells: human PBMCs, FACS
# T1 construct: host or cells: human PBMCs (CD4 T, CD8 T, NK, NKT subsets)
# T1 sequence (P29274 whole entry): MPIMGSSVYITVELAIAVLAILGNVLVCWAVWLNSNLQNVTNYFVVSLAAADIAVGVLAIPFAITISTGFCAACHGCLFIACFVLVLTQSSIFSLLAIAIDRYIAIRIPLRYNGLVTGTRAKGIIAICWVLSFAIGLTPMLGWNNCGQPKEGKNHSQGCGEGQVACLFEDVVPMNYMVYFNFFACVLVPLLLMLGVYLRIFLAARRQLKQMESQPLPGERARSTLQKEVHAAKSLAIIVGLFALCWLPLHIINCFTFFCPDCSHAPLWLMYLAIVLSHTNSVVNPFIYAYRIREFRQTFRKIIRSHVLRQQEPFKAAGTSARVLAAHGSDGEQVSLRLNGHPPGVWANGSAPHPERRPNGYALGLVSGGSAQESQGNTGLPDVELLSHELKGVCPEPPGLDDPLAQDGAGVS
# Protocol: Human and cynomolgus PBMCs were purchased from Cytologics LLC (San Diego, CA) and iQ Biosciences (Berkeley, CA), respectively. 10^6 human and/or cynomolgus PBMCs in 100 μl FACS buffer (1×DPBS, 2% FBS) were incubated with anti-A2aR antibodies at 4° C. for 30 minutes. After wash, samples were stained with PE-conjugated goat-anti-human Fc antibody (1:400, Jackson ImmunoResearch Labs, Cat. 109-116-098) and other surface markers using cynomolgus cross-reactive APC/cy7-anti-CD3 (BD Bioscience, Cat. 557757), BV421-anti-CD4 (Biolegend, Cat. 317433), BV650-anti-CD8 (Biolegend, Cat. 301042) and BV711-anti-CD56 (BD Bioscience, Cat. 742661) for 30 minutes, and Zombie Green fixable Viability dye (Biolegend, Cat. 423111) were used according to manufacturer's instruction to define live immune cell subsets. After wash with FACS buffer, cells were analyzed on FACSAria (BD). Data was analyzed using Flowjo (Becton Dickinson).
# human A2aR = human A2aR (Homo sapiens, UniProt P29274); experiment: In vitro blocking activity of purified humanized anti-A2aR antibodies and SMIs (cAMP-Glo, adenosine or NECA); type: cell-based; conditions: purified antibodies
# human A2aR, sequence (P29274 whole entry): as above
# Protocol: The activity of A2aR is mediated by Gas protein which activates adenylyl cyclase, resulting in the synthesis of intracellular cAMP. The level of cAMP correlates with the respective adenosine (agonist) level. cAMP can be detected using a variety of commercial cAMP assay kit.
# Briefly, clear flat bottom 96 well tissue culture plate (Fisher Scientific) was coated with 50 μl per well of 50 µg/ml poly-D-lysine (Gibco, Cat. A3890401) solution at 4° C. overnight. After 3 washes with sterile endotoxin free water, the coated culture plate was left uncovered in a biosafety cabinet to dry. Freshly thawed A2aR-overexpressing HEK293 cell (BPS Bioscience) were seeded on poly-D-lysine coated plates at 10^4/well in 100 μl culture medium for 24 hours in 37° C., 5% CO2 incubator. After wash with warmed PBS once, one hundred microliters (100 μl) starvation medium (MEM (Hyclone Cat. SH30024.01)+2% charcoal stripped serum (Thermo Fisher, Cat. A3382101)+1% Penicillin/Streptomycin) were added for overnight culture in an incubator at 37° C. and 5% CO2. […] Plates were read to obtain Relative Light Unit (RLU) on SpectraMax 5 reader (Molecular Device). Data were analyzed using Prism software.
Molecule,restoring IFN-γ production in human CD4 T suppressed by NECA (FIG. 5A) ([1]; listed as Hu3F6-VH3/Hu3F6-VL5),restoring IFN-γ production in human CD4 T suppressed by NECA (FIG. 5A) ([1]; listed as Hu3F6-VH3/VL5),restoring IL-2 production in human CD4 T suppressed by NECA (FIG. 5B) [1],% of A2aR+ CD4+ T cells ([2]; human 1 PBMC),% of A2aR+ CD8+ T cells ([2]; human 1 PBMC),% of A2aR+ NK cells ([2]; human 1 PBMC),% of A2aR+ NKT cells ([2]; human 1 PBMC),% of A2aR+ CD4+ T cells ([2]; human 2 PBMC),% of A2aR+ CD8+ T cells ([2]; human 2 PBMC),% of A2aR+ NK cells ([2]; human 2 PBMC),% of A2aR+ NKT cells ([2]; human 2 PBMC),"binding to human T cells (CD4, CD8), NK cells and NKT cells [2]","blocking of the activities of human A2aR expressed on cell surface (RLU, FIG. 1A, 1B) (human A2aR)",restoring IFN-γ production in human CD4 T suppressed by NECA (FIG. 5A) ([1]; listed as Hu3F6-VH5/Hu3F6-VL5),restoring IFN-γ production in human CD4 T suppressed by NECA (FIG. 5A) ([1]; listed as Hu3F6-VH5/VL5)
"Hu3F6-H3/Hu3F6-L5: humanized anti-A2aR IgG1 FES antibody; HCVR SEQ ID NO:60, LCVR SEQ ID NO:80 (antibody, V domains shown) VH: EVQLVQSGAEVKKPGASVKVSCKTSGFAFTSYWMNWVRQAPGQGLEWIGRIDPSDSEAHYHHKFWGRATLTVDTSSSTVYMELSSLRSEDTAVYYCLRSLYGKGDYWGHGTTVTVSS VL: DVVMTQTPLSLSVTPGQPASISCRSSQSLVHRNGNTYLEWYLQKPGQSPQLLIYKVSNRFSGVPDRFSGSGSGTDFTLKISRVEAEDVGVYYCYQGSHVPLTFGGGTKVEIK",higher potency in restoring IFN-γ production,can restore the intracellular IFN gamma and IL2 production,can restore the intracellular IFN gamma and IL2 production,0.43%,0.04%,0.69%,0.46%,0.44%,0.04%,0.75%,0.55%,bound to various human and cynomolgus CD4+ and CD8+ T cells,blocked the activities of human A2aR expressed on cell surface,,
"Hu3F6-H5/Hu3F6-L5: humanized anti-A2aR IgG1 FES antibody; HCVR SEQ ID NO:62, LCVR SEQ ID NO:80 (antibody, V domains shown) VH: EVQLVQSGAEVKKPGASVKVSCKTSGFAFTSYWMNWVRQAPGQGLEWIGRIDPSDSEAHYAHKFWGRATLTVDKSSSTVYMELSSLRSEDTAVYYCLRSLYGKGDYWGHGTTVTVSS VL: DVVMTQTPLSLSVTPGQPASISCRSSQSLVHRNGNTYLEWYLQKPGQSPQLLIYKVSNRFSGVPDRFSGSGSGTDFTLKISRVEAEDVGVYYCYQGSHVPLTFGGGTKVEIK",,,can restore the intracellular IFN gamma and IL2 production,,0.05%,0.66%,0.42%,,0.03%,0.62%,0.48%,bound to various human and cynomolgus CD4+ and CD8+ T cells,blocked the activities of human A2aR expressed on cell surface,higher potency in restoring IFN-γ production,can restore the intracellular IFN gamma and IL2 production

# From patent publication US20250206828A1, “ANTI-ADENOSINE RECEPTOR (A2aR) ANTIBODIES AND THE USE THEREOF” (Adept Therapeutics Inc., priority 2022, published 2025)
